From the supplement of paper PMC11246515
± gives the standard deviation of the averaged measurements.

Test: total protein half-life in vivo (active degradation + dilution); higher = more stable protein
[1] = E. coli NCM3722 delta-clpP delta-lon delta-hslV, growth: N-lim chemostat, doubling time 6 h
[2] = E. coli NCM3722 delta-clpP, growth: N-lim chemostat, doubling time 6 h
[3] = E. coli NCM3722 delta-hslV, growth: N-lim chemostat, doubling time 6 h
[4] = E. coli NCM3722 delta-lon, growth: N-lim chemostat, doubling time 6 h
[5] = E. coli NCM3722 delta-smpB, growth: N-lim chemostat, doubling time 6 h
[6] = wild type E. coli NCM3722, growth: C-lim chemostat, doubling time 3 h
[7] = wild type E. coli NCM3722, growth: C-lim chemostat, doubling time 6 h
[8] = wild type E. coli NCM3722, growth: C-lim chemostat, doubling time 12 h
[9] = wild type E. coli NCM3722, growth: N-lim chemostat, doubling time 6 h
[10] = wild type E. coli NCM3722, growth: N-lim chemostat, doubling time 12 h
[11] = wild type E. coli NCM3722, growth: P-lim chemostat, doubling time 6 h
[12] = wild type E. coli NCM3722, growth: P-lim chemostat, doubling time 12 h

MAQIDFRKKINWHRRYRSPQGVKTEHEILRIFESDRGRIINSPAIRRLQQKTQVFPLERNAAVRTRLTHSMEVQQVGRYIAKEILSRLKELKLLEAYGLDELTGPFESIVEMSCLMHDIGNPPFGHFGEAAINDWFRQRLHPEDAESQPLTDDRCSVAALRLRDGEEPLNELRRKIRQDLCHFEGNAQGIRLVHTLMRMNLTWAQVGGILKYTRPAWWRGETPETHHYLMKKPGYYLSEEAYIARLRKELNLALYSRFPLTWIMEAADDISYCVADLEDAVEKRIFTVEQLYHHLHEAWGQHEKGSLFSLVVENAWEKSRSNSLSRSTEDQFFMYLRVNTLNKLVPYAAQRFIDNLPAIFAGTFNHALLEDASECSDLLKLYKNVAVKHVFSHPDVERLELQGYRVISGLLEIYRPLLSLSLSDFTELVEKERVKRFPIESRLFHKLSTRHRLAYVEAVSKLPSDSPEFPLWEYYYRCRLLQDYISGMTDLYAWDEYRRLMAVEQ
total protein half-life in vivo [1]: 5.23 ± 0.2 h
total protein half-life in vivo [2]: 5.726 ± 0.025 h
total protein half-life in vivo [3]: 6.52 ± 1.8 h
total protein half-life in vivo [4]: 5.63 ± 0.46 h
total protein half-life in vivo [5]: 5.16 ± 0.065 h
total protein half-life in vivo [6]: 3.281 ± 0.016 h
total protein half-life in vivo [7]: 6.17 ± 0.39 h
total protein half-life in vivo [8]: 11.6 ± 0.46 h
total protein half-life in vivo [9]: 6.14 ± 1.6 h
total protein half-life in vivo [10]: 11 ± 0.68 h
total protein half-life in vivo [11]: 5.52 ± 0.37 h
total protein half-life in vivo [12]: 12.2 ± 0.22 h

MAQITTTDANEFSSSAEFIPMRGFSNCHLQTMLPRLFRRQVKFTPYWQRLELPDGDFVDLAWSENPAQAQHKPRLVVFHGLEGSLNSPYAHGLVEAAQKRGWLGVVMHFRGCSGEPNRMHRIYHSGETEDASWFLRWLQREFGHAPTAAVGYSLGGNMLACLLAKEGNDLPVDAAVIVSAPFMLEACSYHMEKGFSRVYQRYLLNLLKANAARKLAAYPGTLPINLAQLKSVRRIREFDDLITARIHGYADAIDYYRQCSAMPMLNRIAKPTLIIHAKDDPFMDHQVIPKPESLPPQVEYQLTEHGGHVGFIGGTLLHPQMWLESRIPDWLTTYLEAKSC
total protein half-life in vivo [1]: 3.69 h
total protein half-life in vivo [8]: 3.84 h
total protein half-life in vivo [11]: 2.34 h
total protein half-life in vivo [12]: 4.3 h

MAQLYFYYSAMNAGKSTALLQSSYNYQERGMRTVVYTAEIDDRFGAGKVSSRIGLSSPAKLFNQNSSLFDEIRAEHEQQAIHCVLVDECQFLTRQQVYELSEVVDQLDIPVLCYGLRTDFRGELFIGSQYLLAWSDKLVELKTICFCGRKASMVLRLDQAGRPYNEGEQVVIGGNERYVSVCRKHYKEALQVDSLTAIQERHRHD
total protein half-life in vivo [1]: 4.73 ± 0.29 h
total protein half-life in vivo [2]: 4.06 ± 0.5 h
total protein half-life in vivo [3]: 3.97 ± 0.089 h
total protein half-life in vivo [4]: 5.17 ± 1.3 h
total protein half-life in vivo [5]: 3.82 ± 0.42 h
total protein half-life in vivo [6]: 2.47 ± 0.051 h
total protein half-life in vivo [7]: 4.98 ± 0.062 h
total protein half-life in vivo [8]: 10.3 ± 0.56 h
total protein half-life in vivo [9]: 3.86 ± 0.31 h
total protein half-life in vivo [10]: 6.8 ± 0.12 h
total protein half-life in vivo [11]: 5.92 ± 0.58 h
total protein half-life in vivo [12]: 11.7 ± 0.69 h

MARFVVLVIDSFGVGAMKDVTLVRPQDAGANTCGHILSQLPHLQLPTLETLGLINALGYAPGDMQPSDSATWGVAELQHEGGDTFMGHQEILGTRPLPPLRMPFRDVIDRVEQALVSAGWQVERRGDDLQFLWVNQAVAIGDNLEADLGQVYNITANLSVISFDDAIKIGRIVREQVQVGRVITFGGLLTDSQRILDAAESKEGRFIGINAPRSGAYDNGFQVVHMGYGVDEKVQVPQKLYEAGVPTVLVGKVADIVNNPYGVSWQNLVDSQRIMDITLNEFNTHPTAFICTNIQETDLAGHAEDVARYAERLQVVDRNLARLVEAMQPDDCLVVMADHGNDPTIGHSHHTREVVPVLVYQQGMIATQLGVRTTLSDVGATVCEFFRAPPPQNGRSFLSSLRFAGDTL
total protein half-life in vivo [1]: 4.67 h

MARKWLNLFAGAALSFAVAGNALADEGKITVFAAASLTNAMQDIATQFKKEKGVDVVSSFASSSTLARQIEAGAPADLFISADQKWMDYAVDKKAIDTATRQTLLGNSLVVVAPKASVQKDFTIDSKTNWTSLLNGGRLAVGDPEHVPAGIYAKEALQKLGAWDTLSPKLAPAEDVRGALALVERNEAPLGIVYGSDAVASKGVKVVATFPEDSHKKVEYPVAVVEGHNNATVKAFYDYLKGPQAAEIFKRYGFTIK
total protein half-life in vivo [1]: 5.7 ± 0.29 h
total protein half-life in vivo [2]: 5.9 ± 0.53 h
total protein half-life in vivo [3]: 6.46 ± 0.2 h
total protein half-life in vivo [4]: 6.16 ± 0.47 h
total protein half-life in vivo [5]: 6.39 ± 0.36 h
total protein half-life in vivo [6]: 2.87 ± 0.23 h
total protein half-life in vivo [7]: 6.01 ± 0.3 h
total protein half-life in vivo [8]: 12.8 ± 0.23 h
total protein half-life in vivo [9]: 5.9 ± 0.19 h
total protein half-life in vivo [10]: 12.7 ± 0.75 h
total protein half-life in vivo [11]: 6.64 ± 0.41 h
total protein half-life in vivo [12]: 13.7 ± 0.95 h

MARRILVVEDEAPIREMVCFVLEQNGFQPVEAEDYDSAVNQLNEPWPDLILLDWMLPGGSGIQFIKHLKRESMTRDIPVVMLTARGEEEDRVRGLETGADDYITKPFSPKELVARIKAVMRRISPMAVEEVIEMQGLSLDPTSHRVMAGEEPLEMGPTEFKLLHFFMTHPERVYSREQLLNHVWGTNVYVEDRTVDVHIRRLRKALEPGGHDRMVQTVRGTGYRFSTRF [P0AFJ5]
total protein half-life in vivo [2]: 4.76 ± 0.81 h
total protein half-life in vivo [3]: 3.79 ± 1.1 h
total protein half-life in vivo [4]: 5.36 ± 0.14 h
total protein half-life in vivo [5]: 4.52 ± 0.53 h
total protein half-life in vivo [6]: 2.93 ± 0.28 h
total protein half-life in vivo [7]: 5.33 ± 0.14 h
total protein half-life in vivo [8]: 8.01 ± 1.2 h
total protein half-life in vivo [9]: 4.51 ± 0.3 h
total protein half-life in vivo [10]: 8.09 h
total protein half-life in vivo [11]: 6.11 ± 1 h
total protein half-life in vivo [12]: 11.3 ± 0.5 h

MASQLTDAFARKFYYLRLSITDVCNFRCTYCLPDGYKPSGVTNKGFLTVDEIRRVTRAFARLGTEKVRLTGGEPSLRRDFTDIIAAVRENDAIRQIAVTTNGYRLERDVASWRDAGLTGINVSVDSLDARQFHAITGQDKFNQVMAGIDAAFEAGFEKVKVNTVLMRDVNHHQLDTFLNWIQHRPIQLRFIELMETGEGSELFRKHHISGQVLRDELLRRGWIHQLRQRSDGPAQVFCHPDYAGEIGLIMPYEKDFCATCNRLRVSSIGKLHLCLFGEGGVNLRDLLEDDTQQQALEARISAALREKKQTHFLHQNNTGITQNLSYIGG
total protein half-life in vivo [1]: 3.3 ± 0.76 h
total protein half-life in vivo [2]: 1.83 ± 0.45 h
total protein half-life in vivo [3]: 0.963 ± 0.26 h
total protein half-life in vivo [4]: 1.07 ± 0.34 h
total protein half-life in vivo [5]: 0.9113 ± 0.009 h
total protein half-life in vivo [6]: 0.618 ± 0.051 h
total protein half-life in vivo [7]: 1.11 ± 0.23 h
total protein half-life in vivo [8]: 1.92 ± 0.54 h
total protein half-life in vivo [9]: 1.03 h
total protein half-life in vivo [10]: 1.81 ± 0.17 h
total protein half-life in vivo [11]: > 8 h
total protein half-life in vivo [12]: 2.39 ± 0.45 h

MASTARSLRYALAILTTSLVTPSVWAHAHLTHQYPAANAQVTAAPQAITLNFSEGVETGFSGAKITGPKNENIKTLPAKRNEQDQKQLIVPLADSLKPGTYTVDWHVVSVDGHKTKGHYTFSVK [P0AA57]
total protein half-life in vivo [1]: 5.53 h
total protein half-life in vivo [3]: > 8 h
total protein half-life in vivo [4]: 5.82 h
total protein half-life in vivo [5]: 4.84 h
total protein half-life in vivo [6]: 3.06 h
total protein half-life in vivo [7]: 5.46 ± 0.25 h
total protein half-life in vivo [8]: 9.96 ± 0.3 h
total protein half-life in vivo [9]: 5.82 ± 0.43 h
total protein half-life in vivo [10]: 9.82 ± 0.3 h
total protein half-life in vivo [11]: 4.82 h
total protein half-life in vivo [12]: 9.37 ± 0.95 h

MASTFTSDTLPADHKAAIRQMKHALRAQLGDVQQIFNQLSDDIATRVAEINALKAQGDAVWPVLSYADIKAGHVTAEQREQIKRRGCAVIKGHFPREQALGWDQSMLDYLDRNRFDEVYKGPGDNFFGTLSASRPEIYPIYWSQAQMQARQSEEMANAQSFLNRLWTFESDGKQWFNPDVSVIYPDRIRRRPPGTTSKGLGAHTDSGALERWLLPAYQRVFANVFNGNLAQYDPWHAAHRTEVEEYTVDNTTKCSVFRTFQGWTALSDMLPGQGLLHVVPIPEAMAYVLLRPLLDDVPEDELCGVAPGRVLPVSEQWHPLLIEALTSIPKLEAGDSVWWHCDVIHSVAPVENQQGWGNVMYIPAAPMCEKNLAYAHKVKAALEKGASPGDFPREDYETNWEGRFTLADLNIHGKRALGMDV
total protein half-life in vivo [1]: 3.33 ± 0.48 h
total protein half-life in vivo [2]: 2.54 ± 0.23 h
total protein half-life in vivo [3]: 2.4687 ± 0.002 h
total protein half-life in vivo [4]: 2.95 ± 0.21 h
total protein half-life in vivo [5]: 2.62 ± 0.082 h
total protein half-life in vivo [6]: 2.7 ± 0.11 h
total protein half-life in vivo [7]: 4.34 ± 1 h
total protein half-life in vivo [8]: 3.99 ± 0.74 h
total protein half-life in vivo [9]: 2.526 ± 0.014 h
total protein half-life in vivo [10]: 3.68 ± 0.21 h
total protein half-life in vivo [11]: 4.563 ± 0.02 h
total protein half-life in vivo [12]: 7.6 ± 0.48 h

MATAKKITIHDVALAAGVSVSTVSLVLSGKGRISTATGERVNAAIEELGFVRNRQASALRGGQSGVIGLIVRDLSAPFYAELTAGLTEALEAQGRMVFLLHGGKDGEQLAQRFSLLLNQGVDGVVIAGAAGSSDDLRRMAEEKAIPVIFASRASYLDDVDTVRPDNMQAAQLLTEHLIRNGHQRIAWLGGQSSSLTRAERVGGYCATLLKFGLPFHSDWVLECTSSQKQAAEAITALLRHNPTISAVVCYNETIAMGAWFGLLKAGRQSGESGVDRYFEQQVSLAAFTDATPTTLDDIPVTWASTPARELGITLADRMMQKITHEETHSRNLIIPARLIAAK
total protein half-life in vivo [1]: 6.29 ± 0.064 h
total protein half-life in vivo [2]: 6.58 ± 1.8 h
total protein half-life in vivo [3]: 4.56 h
total protein half-life in vivo [4]: 5.27 ± 0.39 h
total protein half-life in vivo [5]: 4.45 ± 0.36 h
total protein half-life in vivo [6]: 2.7 ± 0.15 h
total protein half-life in vivo [7]: 5.25 ± 0.078 h
total protein half-life in vivo [8]: 8.757 ± 0.013 h
total protein half-life in vivo [9]: 4.64 ± 0.33 h
total protein half-life in vivo [10]: 8.39 ± 2.1 h
total protein half-life in vivo [11]: 4.36 ± 0.092 h
total protein half-life in vivo [12]: 9.01 ± 0.16 h

MATGTQPDAGQILNSLINSILLIDDNLAIHYANPAAQQLLAQSSRKLFGTPLPELLSYFSLNIELMQESLEAGQGFTDNEVTLVIDGRSHILSVTAQRMPDGMILLEMAPMDNQRRLSQEQLQHAQQVAARDLVRGLAHEIKNPLGGLRGAAQLLSKALPDPSLLEYTKVIIEQADRLRNLVDRLLGPQLPGTRVTESIHKVAERVVTLVSMELPDNVRLIRDYDPSLPELAHDPDQIEQVLLNIVRNALQALGPEGGEIILRTRTAFQLTLHGERYRLAARIDVEDNGPGIPPHLQDTLFYPMVSGREGGTGLGLSIARNLIDQHSGKIEFTSWPGHTEFSVYLPIRK [P0AFB5]
total protein half-life in vivo [1]: 5.25 ± 0.15 h
total protein half-life in vivo [2]: 5.41 ± 0.72 h
total protein half-life in vivo [3]: 5.19 ± 0.57 h
total protein half-life in vivo [4]: 4.938 ± 0.023 h
total protein half-life in vivo [5]: 4.73 ± 0.11 h
total protein half-life in vivo [6]: 3.11 ± 0.38 h
total protein half-life in vivo [7]: 5.27 ± 0.073 h
total protein half-life in vivo [8]: 9.99 ± 1.6 h
total protein half-life in vivo [9]: 4.48 ± 0.38 h
total protein half-life in vivo [10]: 8.26 ± 1 h
total protein half-life in vivo [11]: 7.12 ± 0.5 h
total protein half-life in vivo [12]: 11.2 ± 2.2 h
